To fix the notation:
B1: GpH7-A5/GpH7-B3 variant Y300_19Q/GpL16-k0 (antibody, human IgG1, kappa)
heavy 1: not shown
heavy 2: not shown
light: DIVMTQSPLSLPVTPGEPASISCQASESLVHSNRNTYLHWYLQKPGQSPQLLIYKVSNRFSGVPDRFSGSGSGTDFTLKISRVEAEDVGVYYCSQNTHVPPTFGQGTKVEIERTVAAPSVFIFPPSDEQLKSGTASVVCLLNNFYPREAKVQWKVDNALQSGNSQESVTEQDSKDSTYSLSSTLTLSKADYEKHKVYACEVTHQGLSSPVTKSFNRGEC
notes: heterodimerized IgG1; mutation in one H chain only; also called He Ab
B2: GpH7-A5/GpH7-B3 variant Y296_19Q/GpL16-k0 (antibody, human IgG1, kappa)
heavy 1: not shown
heavy 2: not shown
light: B1 light
notes: as for B1
B3: GpH7-A5/GpH7-B3 variant T335_19Q/GpL16-k0 (antibody, human IgG1, kappa)
heavy 1: not shown
heavy 2: not shown
light: B1 light
notes: as for B1
B4: GpH7-A5/GpH7-B3 variant Y296_13S/GpL16-k0 (antibody, human IgG1, kappa)
heavy 1: not shown
heavy 2: not shown
light: B1 light
notes: as for B1
B5: GpH7-A5/GpH7-B3 variant Y296_14T/GpL16-k0 (antibody, human IgG1, kappa)
heavy 1: not shown
heavy 2: not shown
light: B1 light
notes: as for B1
B6: GpH7-A5/GpH7-B3 variant Y296_11K/GpL16-k0 (antibody, human IgG1, kappa)
heavy 1: not shown
heavy 2: not shown
light: B1 light
notes: as for B1
B7: GpH7-A5/GpH7-B3 variant Y296_18N/GpL16-k0 (antibody, human IgG1, kappa)
heavy 1: not shown
heavy 2: not shown
light: B1 light
notes: as for B1
B8: GpH7-A5/GpH7-B3 variant Y296_10E/GpL16-k0 (antibody, human IgG1, kappa)
heavy 1: not shown
heavy 2: not shown
light: B1 light
notes: as for B1
B9: GpH7-A5/GpH7-B3 variant Y296_20W/GpL16-k0 (antibody, human IgG1, kappa)
heavy 1: not shown
heavy 2: not shown
light: B1 light
notes: as for B1
B10: GpH7-A5/GpH7-B3 variant Y300_14T/GpL16-k0 (antibody, human IgG1, kappa)
heavy 1: not shown
heavy 2: not shown
light: B1 light
notes: as for B1
B11: GpH7-A5/GpH7-B3 variant T335_18N/GpL16-k0 (antibody, human IgG1, kappa)
heavy 1: not shown
heavy 2: not shown
light: B1 light
notes: as for B1
B12: GpH7-A5/GpH7-B3 variant T335_20W/GpL16-k0 (antibody, human IgG1, kappa)
heavy 1: not shown
heavy 2: not shown
light: B1 light
notes: as for B1
B13: GpH7-A5/GpH7-B3 variant Y300_11K/GpL16-k0 (antibody, human IgG1, kappa)
heavy 1: not shown
heavy 2: not shown
light: B1 light
notes: as for B1
B14: GpH7-A5/GpH7-B3 variant Y296_06M/GpL16-k0 (antibody, human IgG1, kappa)
heavy 1: not shown
heavy 2: not shown
light: B1 light
notes: as for B1
B15: GpH7-A5/GpH7-B3 variant Y300_10E/GpL16-k0 (antibody, human IgG1, kappa)
heavy 1: not shown
heavy 2: not shown
light: B1 light
notes: as for B1
B16: GpH7-A5/GpH7-B3 variant Y296_12R/GpL16-k0 (antibody, human IgG1, kappa)
heavy 1: not shown
heavy 2: not shown
light: B1 light
notes: as for B1
B17: GpH7-A5/GpH7-B3 variant Y300_20W/GpL16-k0 (antibody, human IgG1, kappa)
heavy 1: not shown
heavy 2: not shown
light: B1 light
notes: as for B1
B18: GpH7-A5/GpH7-B3 variant Y296_16H/GpL16-k0 (antibody, human IgG1, kappa)
heavy 1: not shown
heavy 2: not shown
light: B1 light
notes: as for B1

This is an account of results in US20180155451A1 (published 2018).

In this test the target is T1, FcγRIa (human, UniProt P12314 16-292).
T1 construct: extracellular domain; also called FcgRI; CD64; not shown: C-terminal His tag
T1 sequence (P12314 16-292): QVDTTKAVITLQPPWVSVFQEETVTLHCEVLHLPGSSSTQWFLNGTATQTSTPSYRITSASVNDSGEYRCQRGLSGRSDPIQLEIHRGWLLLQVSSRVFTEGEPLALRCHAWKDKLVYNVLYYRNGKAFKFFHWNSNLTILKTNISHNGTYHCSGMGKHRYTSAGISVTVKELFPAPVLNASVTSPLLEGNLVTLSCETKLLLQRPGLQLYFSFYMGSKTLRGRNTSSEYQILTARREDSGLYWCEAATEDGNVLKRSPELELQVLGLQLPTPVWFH
Briefly: SPR (Biacore), antibody captured on antigen peptide chip, FcγRIa as analyte; relative binding amount. The protocol: Analysis of interaction between objective antibody and the FcγR was carried out using Biacore T100 (GE Healthcare). HBS-EP+ (GE Healthcare) was used as the running buffer, and the measurement temperature was set to 25° C. Chips produced by immobilizing the antigen peptide by the amine coupling method to a Series S Sencor Chip CM5 (GE Healthcare), or alternatively, chips produced by allowing preliminarily biotinylated antigen peptides to interact with and immobilize onto a Series S Sensor Chip SA (certified) (GE Healthcare) were used. Antibodies of interest were captured onto an antigen peptide-immobilized chip, and allowed to interact to each FcγR diluted with running buffer. To regenerate and repeatedly use the chip, the antibodies captured on the chip were washed off by reacting 10 mM glycine-HCl, pH 1.5.
(In general: In SPR one partner is held on a chip, and binding of the other changes the refractive index at the surface.)
For the molecule B1, the He/Con_1a was 112 % of control (GpH7-A5/GpH7-B3/GpL16-k0 = 100).
The same measure for B2: 112 % of control (GpH7-A5/GpH7-B3/GpL16-k0 = 100); for B3: 105 % of control (GpH7-A5/GpH7-B3/GpL16-k0 = 100); for B4: 105 % of control (GpH7-A5/GpH7-B3/GpL16-k0 = 100).
As for B5, the He/Con_1a is 105 % of control (GpH7-A5/GpH7-B3/GpL16-k0 = 100).
The value for B6 was 105 % of control (GpH7-A5/GpH7-B3/GpL16-k0 = 100); that for B7 was 106 % of control (GpH7-A5/GpH7-B3/GpL16-k0 = 100); that for B8 was 106 % of control (GpH7-A5/GpH7-B3/GpL16-k0 = 100).
The same measure for B9: 111 % of control (GpH7-A5/GpH7-B3/GpL16-k0 = 100); for B10: 112 % of control (GpH7-A5/GpH7-B3/GpL16-k0 = 100).
The value for B11 was 106 % of control (GpH7-A5/GpH7-B3/GpL16-k0 = 100).
As to B12, the He/Con_1a is 106 % of control (GpH7-A5/GpH7-B3/GpL16-k0 = 100).
Turning to B13, the He/Con_1a was 107 % of control (GpH7-A5/GpH7-B3/GpL16-k0 = 100).
Consider B14, for which the He/Con_1a is 104 % of control (GpH7-A5/GpH7-B3/GpL16-k0 = 100).
The value for B15 was 114 % of control (GpH7-A5/GpH7-B3/GpL16-k0 = 100); that for B16 was 106 % of control (GpH7-A5/GpH7-B3/GpL16-k0 = 100).
Turning to B17, the He/Con_1a was 112 % of control (GpH7-A5/GpH7-B3/GpL16-k0 = 100).
The value for B18 was 106 % of control (GpH7-A5/GpH7-B3/GpL16-k0 = 100).
